According to IntAct's records for PubMed 29039417:

B1: BBSome complex member BBS1 (Homo sapiens), Q8NFJ9 (parent)
chain: MAAASSSDSDACGAESNEANSKWLDAHYDPMANIHTFSACLALADLHGDGEYKLVVGDLGPGGQQPRLKVLKGPLVMTESPLPALPAAAATFLMEQHEPRTPALALASGPCVYVYKNLRPYFKFSLPQLPPNPLEQDLWNQAKEDRIDPLTLKEMLESIRETAEEPLSIQSLRFLQLELSEMEAFVNQHKSNSIKRQTVITTMTTLKKNLADEDAVSCLVLGTENKELLVLDPEAFTILAKMSLPSVPVFLEVSGQFDVEFRLAAACRNGNIYILRRDSKHPKYCIELSAQPVGLIRVHKVLVVGSTQDSLHGFTHKGKKLWTVQMPAAILTMNLLEQHSRGLQAVMAGLANGEVRIYRDKALLNVIHTPDAVTSLCFGRYGREDNTLIMTTRGGGLIIKILKRTAVFVEGGSEVGPPPAQAMKLNVPRKTRLYVDQTLREREAGTAMHRAFQTDLYLLRLRAARAYLQALESSLSPLSTTAREPLKLHAVVQGLGPTFKLTLHLQNTSTTRPVLGLLVCFLYNEALYSLPRAFFKVPLLVPGLNYPLETFVESLSNKGISDIIKVLVLREGQSAPLLSAHVNMPGSEGLAAA
partner: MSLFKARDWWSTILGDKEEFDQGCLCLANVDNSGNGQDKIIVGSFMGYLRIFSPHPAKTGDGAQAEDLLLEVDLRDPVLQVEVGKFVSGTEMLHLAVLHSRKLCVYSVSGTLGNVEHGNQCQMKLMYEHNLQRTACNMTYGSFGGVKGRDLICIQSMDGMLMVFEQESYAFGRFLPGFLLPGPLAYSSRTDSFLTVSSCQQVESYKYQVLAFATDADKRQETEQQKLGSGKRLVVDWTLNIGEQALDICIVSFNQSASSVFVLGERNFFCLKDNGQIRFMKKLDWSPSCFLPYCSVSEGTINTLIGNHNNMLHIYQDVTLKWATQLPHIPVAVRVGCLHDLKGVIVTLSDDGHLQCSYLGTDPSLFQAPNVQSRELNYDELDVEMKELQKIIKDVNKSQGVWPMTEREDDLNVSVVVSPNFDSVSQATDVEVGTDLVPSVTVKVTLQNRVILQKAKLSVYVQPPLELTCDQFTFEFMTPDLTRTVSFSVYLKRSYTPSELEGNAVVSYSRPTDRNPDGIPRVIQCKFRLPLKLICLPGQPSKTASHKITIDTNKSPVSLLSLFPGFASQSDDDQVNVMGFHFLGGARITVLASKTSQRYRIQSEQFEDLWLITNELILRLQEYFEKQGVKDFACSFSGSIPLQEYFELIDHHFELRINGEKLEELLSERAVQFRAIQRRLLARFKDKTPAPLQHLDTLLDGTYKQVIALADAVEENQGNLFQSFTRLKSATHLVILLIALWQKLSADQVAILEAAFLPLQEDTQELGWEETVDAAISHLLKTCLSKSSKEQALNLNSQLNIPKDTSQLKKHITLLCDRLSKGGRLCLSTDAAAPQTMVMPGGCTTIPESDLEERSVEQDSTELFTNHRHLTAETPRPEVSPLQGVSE
B2: BBSome-interacting protein 1 (Homo sapiens), A8MTZ0 (parent)
chain: MLKAAAKRPELSGKNTISNNSDMAEVKSMFREVLPKQGPLFVEDIMTMVLCKPKLLPLKSLTLEKLEKMHQAAQNTIRQQEMAEKDQRQITH
partner: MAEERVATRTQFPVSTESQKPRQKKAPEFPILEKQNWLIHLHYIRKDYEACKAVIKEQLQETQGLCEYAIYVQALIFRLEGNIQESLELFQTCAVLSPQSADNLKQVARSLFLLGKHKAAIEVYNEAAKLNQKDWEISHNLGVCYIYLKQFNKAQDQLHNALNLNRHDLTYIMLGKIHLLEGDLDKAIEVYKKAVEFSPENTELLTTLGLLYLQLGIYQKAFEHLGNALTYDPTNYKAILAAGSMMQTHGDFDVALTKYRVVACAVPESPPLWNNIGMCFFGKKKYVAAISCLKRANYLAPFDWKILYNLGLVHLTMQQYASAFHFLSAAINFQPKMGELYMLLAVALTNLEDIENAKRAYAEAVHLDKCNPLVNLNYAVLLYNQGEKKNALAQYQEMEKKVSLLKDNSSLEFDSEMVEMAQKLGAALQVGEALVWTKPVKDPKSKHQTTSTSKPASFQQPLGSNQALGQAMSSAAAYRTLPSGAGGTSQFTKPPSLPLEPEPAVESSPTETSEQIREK

Variants of: B1
Details: with pthb1_human BBS9, Q3SYG4

effect of a mutation on the interaction | Variant
with no effect | T446E
with no effect | T446A
with no effect | T446K
with no effect | S413K
with no effect | S413A
with no effect | S413E
with no effect | R429K
with no effect | R429E
with no effect | R429A
with no effect | A422E
with no effect | A422K
with no effect | R432K
disrupting interaction strength | R432L
with no effect | R432A
with no effect | R432E
with no effect | L433A
with no effect | L433E
with no effect | L433K
with no effect | K430E
disrupting interaction strength | K430M
with no effect | K430A
with no effect | L439A
with no effect | L439K
with no effect | L439E
with no effect | V427E

effect of a mutation on the interaction | Variant
with no effect | V427A
with no effect | V427K
with no effect | A420K
with no effect | A420E
with no effect | P428E
with no effect | P428K
with no effect | P428A
with no effect | P419A
with no effect | P419K
with no effect | P419E
with no effect | D436E
with no effect | D436K
disrupting interaction strength | D436A
with no effect | A451K
with no effect | A451E
with no effect | K424E
with no effect | K424A
with no effect | E414K
with no effect | E414A
with no effect | Q421A
with no effect | Q421E
with no effect | Q421K
with no effect | D455E
with no effect | D455A
with no effect | G416E

effect of a mutation on the interaction | Variant
with no effect | G416A
with no effect | G416K
with no effect | L425E
with no effect | L425K
with no effect | L425A
with no effect | E441A
with no effect | E441K
with no effect | H449E
with no effect | H449A
with no effect | H449K
with no effect | R450K
with no effect | R450A
with no effect | R450E
with no effect | T438E
with no effect | T438A
with no effect | T438K
with no effect | E443A
with no effect | E443K
with no effect | P417E
with no effect | P417A
with no effect | P417K
with no effect | R440E
with no effect | R440A
with no effect | R440K
with no effect | A444E

effect of a mutation on the interaction | Variant
with no effect | A444K
with no effect | A447K
with no effect | A447E
with no effect | F452K
with no effect | F452A
with no effect | F452E
disrupting interaction strength | F452C
with no effect | R442A
with no effect | R442E
with no effect | R442K
with no effect | M448K
with no effect | M448E
with no effect | M448A
with no effect | G445E
with no effect | G445K
with no effect | G445A
with no effect | M423E
with no effect | M423K
with no effect | M423A
with no effect | T454E
with no effect | T454K
with no effect | T454A
with no effect | V415E
with no effect | V415K
with no effect | V415A

effect of a mutation on the interaction | Variant
with no effect | Y434A
with no effect | Y434K
with no effect | Y434E
with no effect | V435K
with no effect | V435A
disrupting interaction strength | V435L
with no effect | V435E
with no effect | Q453E
with no effect | Q453A
with no effect | Q453K
with no effect | P418E
with no effect | P418A
with no effect | P418K
with no effect | T431E
with no effect | T431A
with no effect | T431K
with no effect | Q437E
with no effect | Q437K
with no effect | Q437A
with no effect | N426A
with no effect | N426K
with no effect | N426E

Variants of: B2
Details: with bbs4_human BBS4, Q96RK4

effect of a mutation on the interaction | Variant
with no effect | T91A
with no effect | T91K
with no effect | T91E
with no effect | R78E
with no effect | R78K
with no effect | R78A
with no effect | A83E
with no effect | A83K
with no effect | N75K
with no effect | N75A
with no effect | N75E
with no effect | H92E
with no effect | H92A
with no effect | H92K
with no effect | D86A
with no effect | D86K
with no effect | D86E
with no effect | Q80K
with no effect | Q80E
with no effect | Q80A
with no effect | R88E

effect of a mutation on the interaction | Variant
with no effect | R88A
with no effect | R88K
with no effect | T76E
with no effect | T76A
with no effect | T76K
with no effect | Q71A
disrupting interaction strength | Q71R
with no effect | Q71K
with no effect | Q71E
disrupting interaction strength | A72D
with no effect | A72E
with no effect | A72K
with no effect | M82K
with no effect | M82A
with no effect | M82E
with no effect | E81A
with no effect | E81K
with no effect | K85A
with no effect | K85E
with no effect | Q89K
with no effect | Q89A

effect of a mutation on the interaction | Variant
with no effect | Q89E
with no effect | Q87A
with no effect | Q87K
with no effect | Q87E
with no effect | I77E
with no effect | I77K
with no effect | I77A
with no effect | Q79E
with no effect | Q79A
with no effect | Q79K
with no effect | A73E
with no effect | A73K
with no effect | I90K
with no effect | I90A
with no effect | I90E
with no effect | E84A
with no effect | E84K
with no effect | Q74K
with no effect | Q74E
with no effect | Q74A
